Source: IntAct's records for PubMed 17314099

B1: Serine-threonine kinase receptor-associated protein (Homo sapiens), Q9Y3F4 (parent)
chain: MAMRQTPLTCSGHTRPVVDLAFSGITPYGYFLISACKDGKPMLRQGDTGDWIGTFLGHKGAVWGATLNKDATKAATAAADFTAKVWDAVSGDELMTLAHKHIVKTVDFTQDSNYLLTGGQDKLLRIYDLNKPEAEPKEISGHTSGIKKALWCSEDKQILSADDKTVRLWDHATMTEVKSLNFNMSVSSMEYIPEGEILVITYGRSIAFHSAVSLDPIKSFEAPATINSASLHPEKEFLVAGGEDFKLYKYDYNSGEELESYKGHFGPIHCVRFSPDGELYASGSEDGTLRLWQTVVGKTYGLWKCVLPEEDSGELAKPKIGFPETTEEELEEIASENSDCIFPSAPDVKA

Key:
Details in all cases: with ndka_human NME1, P15531
[1] = variants of: B1
[2] = variants of: B1; remark: listed apart in the source
[3] = variants of: B1; remark: listed apart in the source

ndka_human NME1, P15531, sequence (P15531 whole entry): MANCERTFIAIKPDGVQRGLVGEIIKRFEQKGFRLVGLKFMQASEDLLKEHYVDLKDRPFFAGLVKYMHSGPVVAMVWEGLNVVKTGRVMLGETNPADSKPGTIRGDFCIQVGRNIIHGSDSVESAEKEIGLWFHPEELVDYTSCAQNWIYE

Variant | effect of a mutation on the interaction [1] | effect of a mutation on the interaction [2] | effect of a mutation on the interaction [3]
C152S;C270S | disrupting interaction | decreasing interaction | –
C270S | decreasing interaction | – | disrupting interaction
C152S | decreasing interaction | – | disrupting interaction
